These results are taken from patent US20260166084A1 (published 2026).

Experiment [1] concerns the target complex formed between CRBN/DDB1 and lenalidomide (UniProt Q96SW2 1-442; Q16531 2-1140). Nature of the experiment: TR-FRET displacement; lenalidomide. (TR-FRET usually uses a lanthanide donor and a delayed reading to cut background.)
Experiment [2] deals with complex formed between CRBN/DDB1 and iberdomide (UniProt Q96SW2 1-442; Q16531 2-1140). Nature of the experiment: TR-FRET displacement; iberdomide.
The target in experiment [3] is complex formed between CRBN/DDB1 and pomalidomide (UniProt Q96SW2 1-442; Q16531 2-1140). Description: TR-FRET displacement; pomalidomide.

In general, IC50 refers to the concentration that gives 50% inhibition. Read a high IC50 as weaker potency.

complex formed between CRBN/DDB1 and pomalidomide, sequence (Q96SW2 whole entry, chain 1 of 2): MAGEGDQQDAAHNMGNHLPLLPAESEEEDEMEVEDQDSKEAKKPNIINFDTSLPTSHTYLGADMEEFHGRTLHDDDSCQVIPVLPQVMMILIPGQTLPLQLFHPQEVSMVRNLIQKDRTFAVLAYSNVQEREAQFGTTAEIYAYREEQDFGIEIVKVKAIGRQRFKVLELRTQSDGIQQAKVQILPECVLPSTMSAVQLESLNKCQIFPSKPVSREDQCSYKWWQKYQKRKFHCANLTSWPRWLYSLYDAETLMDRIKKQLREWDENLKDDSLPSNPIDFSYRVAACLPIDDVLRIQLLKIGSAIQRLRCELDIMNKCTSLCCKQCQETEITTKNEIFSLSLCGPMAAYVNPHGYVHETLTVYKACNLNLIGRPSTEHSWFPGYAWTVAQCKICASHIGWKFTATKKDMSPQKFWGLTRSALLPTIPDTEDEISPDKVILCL
complex formed between CRBN/DDB1 and pomalidomide, sequence (Q16531 2-1140, chain 2 of 2): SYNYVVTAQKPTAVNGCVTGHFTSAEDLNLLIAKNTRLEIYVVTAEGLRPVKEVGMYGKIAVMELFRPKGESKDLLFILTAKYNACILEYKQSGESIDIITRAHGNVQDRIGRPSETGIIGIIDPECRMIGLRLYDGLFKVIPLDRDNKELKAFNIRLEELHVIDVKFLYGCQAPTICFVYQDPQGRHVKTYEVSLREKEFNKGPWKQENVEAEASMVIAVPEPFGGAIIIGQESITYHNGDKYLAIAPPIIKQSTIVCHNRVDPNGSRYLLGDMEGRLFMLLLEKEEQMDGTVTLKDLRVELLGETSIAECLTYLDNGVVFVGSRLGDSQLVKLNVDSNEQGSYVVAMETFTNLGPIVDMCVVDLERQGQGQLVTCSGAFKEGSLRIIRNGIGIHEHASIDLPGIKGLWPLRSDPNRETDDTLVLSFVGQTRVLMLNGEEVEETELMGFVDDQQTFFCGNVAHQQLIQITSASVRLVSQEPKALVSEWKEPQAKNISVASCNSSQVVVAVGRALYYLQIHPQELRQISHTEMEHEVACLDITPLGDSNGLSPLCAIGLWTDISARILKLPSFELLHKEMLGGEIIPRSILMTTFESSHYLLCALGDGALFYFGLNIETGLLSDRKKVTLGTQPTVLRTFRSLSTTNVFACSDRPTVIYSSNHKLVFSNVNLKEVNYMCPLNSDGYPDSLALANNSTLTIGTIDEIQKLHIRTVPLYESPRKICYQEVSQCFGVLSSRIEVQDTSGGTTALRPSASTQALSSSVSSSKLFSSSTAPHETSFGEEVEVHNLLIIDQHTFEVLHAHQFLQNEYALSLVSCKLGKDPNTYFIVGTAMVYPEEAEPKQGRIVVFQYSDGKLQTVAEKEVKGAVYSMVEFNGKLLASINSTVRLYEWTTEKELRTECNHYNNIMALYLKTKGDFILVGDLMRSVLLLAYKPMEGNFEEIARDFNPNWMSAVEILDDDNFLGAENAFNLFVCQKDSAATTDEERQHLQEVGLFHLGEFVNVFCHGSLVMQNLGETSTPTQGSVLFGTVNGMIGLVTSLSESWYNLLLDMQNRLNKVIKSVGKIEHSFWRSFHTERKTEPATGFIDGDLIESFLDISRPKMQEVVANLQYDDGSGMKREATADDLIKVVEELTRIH
complex formed between CRBN/DDB1 and iberdomide, sequence (Q96SW2 whole entry, chain 1 of 2): as the sequence (Q96SW2 whole entry, chain 1 of 2) above
complex formed between CRBN/DDB1 and iberdomide, sequence (Q16531 2-1140, chain 2 of 2): as the sequence (Q16531 2-1140, chain 2 of 2) above
complex formed between CRBN/DDB1 and lenalidomide, sequence (Q96SW2 whole entry, chain 1 of 2): as the sequence (Q96SW2 whole entry, chain 1 of 2) above
complex formed between CRBN/DDB1 and lenalidomide, sequence (Q16531 2-1140, chain 2 of 2): as the sequence (Q16531 2-1140, chain 2 of 2) above

B1: iTAG1 (DCD23) (designed binder)
chain: PNVLMVHKRSHTGERPLQCEICGFTCRQKGNLLRHIKLHSGEKPFKCHLCNYACRRRDAL
As to B1, the results for the half-maximal inhibitory concentration (IC50) in experiment [1], in experiment [2] and in experiment [3] were 78.7 nM, 36.4 nM and 49.8 nM, respectively.

B2: iTAG2 (DCD23mut) (designed binder)
chain: PNVLMVHNESHTGEIPLQCEICGFTCEQAGNLLNHIELHSGEIPFKCHLCNYACRRRDAL
Take B2: the half-maximal inhibitory concentration (IC50) in experiment [1] was determined as 860 nM; in experiment [2] it was 556 nM; in experiment [3], 834 nM.
